The series concerns the molecule itself. In words: cryo-EM structure.

B1: OpuA polypeptide with the nucleotide-binding domain (NBD) fused to a tandem CBS domain, E190Q (natural protein, Lactococcus lactis, UniProt Q9KIF7 1-408, looked up)
chain: MPVKIKIEHLTKIFGKRIKTALTMVEKGEPKNEILKKTGATVGVYDTNFEINEGEIFVIMGLSGSGKSTLLRLLNRLIEPTSGKIFIDNQDVATLNKEDLLQVRRKTMSMVFQNFGLFPHRTILENTEYGLEVQNVPKEERRKRAEKALDNANLLDFKDQYPKQLSGGMQQRVGLARALANDPEILLMDQAFSALDPLIRREMQDELLELQAKFQKTIIFVSHDLNEALRIGDRIAIMKDGKIMQIGTGEEILTNPANDYVKTFVEDVDRAKVITAENIMIPALTTNIDVDGPSVALKKMKTEEVSSLMAVDKKRQFRGVVTSEQAIAARKNNQPLKDVMTTDVGTVSKEMLVRDILPIIYDAPTPLAVVDDNGFLKGVLIRGSVLEALADIPDEDEVEEIEKEEENK
On to B1, for which the binding result is “binds”.

(Values after article PMC7673798 (Science Advances, 2020).)
